According to publication PMC5979349, “The Recombinant Inhibitor of DNA Binding Id2 Forms Multimeric Structures via the Helix-Loop-Helix Domain and the Nuclear Export Signal” (International Journal of Molecular Sciences, 2018):

B1: recombinant full-length human Id2 protein, preparation with oligomers of the type Id2nβMEn (natural protein, UniProt Q02363 1-134, looked up)
chain: MKAFSPVRSVRKNSLSDHSLGISRSKTPVDDPMSLLYNMNDCYSKLKELVPSIPQNKKVSKMEILQHVIDYILDLQIALDSHPTIVSLHHQRPGQNQASRTPLTTLNTDISILSLQASEFPSELMSNDSKALCG
modifications: mixed disulfide with βME, as Id2nβMEn (n = 2–4)
notes: the His-tag of pET22b(+) was excluded by a double stop; Another preparation of the same construct as m1; the formula implies one βME for each monomer, so one cysteine of each monomer is free or in an intermolecular disulfide
B2: recombinant full-length human Id2 protein, sample Id2’ (natural protein, UniProt Q02363 1-134, looked up)
chain: B1 chain
modifications: both cysteine residues (Cys-42 and Cys-133) disulfide-bonded to β-mercaptoethanol (βME); one oxidized methionine residue, Met(O)
notes: the His-tag of pET22b(+) was excluded by a double stop; The most homogeneous unlabeled preparation; also called Id2 1–134

Key:
[1] = biological target: the molecule itself; test: MALDI-TOF mass spectrometry; lyophilized protein dissolved in water, α-cyano-4-hydroxycinnamic acid as matrix
[2] = biological target: the molecule itself; test: NMR diffusion-ordered spectroscopy (DOSY); unlabeled Id2’ at 0.27 mM in H2O/D2O (94:6, v/v); calibration curve with protein standards
[3] = biological target: the molecule itself; test: dynamic light scattering; Id2’ 80 μM in pure water, 21 °C, measured immediately after filtration (0.2 μm); globular model for molecular weight
[4] = biological target: the molecule itself; test: dynamic light scattering; Id2’ 80 μM in pure water, 21 °C, two weeks old filtered sample; globular model for molecular weight

| Protein | stoichiometry N [1] | stoichiometry N [2] | stoichiometry N [3] | stoichiometry N [4] |
| --- | --- | --- | --- | --- |
| B1 | 2 to 4 |  |  |  |
| B2 |  | ~16 monomers | 3 monomers | 16 monomers |
